Laboratory results reported in patent US20210388053A1.
“And” between values parts separate entries of the source, which are not always exact repeats. Equal values may be shown once.

Experiments:
[1] = biological target: canine FcRn/B2M protein complex (canine FcRn ECD with C-terminal poly-His tag and canine Beta-2-Microglobulin) (canine); assay: SPR Biacore T200, pH 6.0; biotinylated FcRn/B2M immobilized, Fc as analyte
[2] = biological target: canine FcRn/B2M protein complex (canine FcRn ECD with C-terminal poly-His tag and canine Beta-2-Microglobulin) (canine); assay: SPR Biacore T200 steady state, pH 6.0, 25 C; Fc on CM5 chip, FcRn/B2M 12.5-200 nM
[3] = biological target: canine FcRn/B2M protein complex (canine FcRn ECD with C-terminal poly-His tag and canine Beta-2-Microglobulin) (canine); assay: SPR Biacore 8K, pH 6.0, 25 C; Fc captured by SASA tag on BSA chip, FcRn/B2M 400 nM as analyte

Chain of canine FcRn/B2M protein complex (canine FcRn ECD with C-terminal poly-His tag and canine Beta-2-Microglobulin) (canine) (chain, as listed by the source limits assumed, form in doubt, chain 1 of 2): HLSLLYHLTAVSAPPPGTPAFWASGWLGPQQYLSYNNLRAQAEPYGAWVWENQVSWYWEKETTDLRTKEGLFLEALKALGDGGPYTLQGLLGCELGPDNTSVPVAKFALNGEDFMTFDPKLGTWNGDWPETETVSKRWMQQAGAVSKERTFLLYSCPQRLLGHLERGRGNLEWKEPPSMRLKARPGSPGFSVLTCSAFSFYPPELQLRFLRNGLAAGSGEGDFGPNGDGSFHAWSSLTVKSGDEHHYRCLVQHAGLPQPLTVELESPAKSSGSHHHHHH
Chain of canine FcRn/B2M protein complex (canine FcRn ECD with C-terminal poly-His tag and canine Beta-2-Microglobulin) (canine) (b2m, as listed by the source limits assumed, form in doubt, chain 2 of 2): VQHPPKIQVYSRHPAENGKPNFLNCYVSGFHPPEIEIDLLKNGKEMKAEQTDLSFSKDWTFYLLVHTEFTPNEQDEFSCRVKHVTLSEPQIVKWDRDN

Row | Binder | koff [1] | Kd [2] [nM] | Kd [3] [nM] | koff [3] [s⁻¹] | kon [3] [M⁻¹ s⁻¹]
1 | variant canine IgG-B Fc polypeptide L(24)M (protein, not shown: small tags and cut ends) CPAPEMLGGPSVFIFPPKPKDTLMIARTPEVTCVVVDLDPEDPEVQISWFVDGKQMQTAKTQPREEQFNGTYRVVSVLPIGHQDWLKGKQFTCKVNNKALPSPIERTISKARGQAHQPSVYVLPPSREELSKNTVSLTCLIKDFFPPDIDVEWQSNGQQEPESKYRTTPPQLDEDGSYFLYSKLSVDKSRWQRGDTFICAVMHEALHNHYTQESLSHSPGK | 0.126 s⁻¹ | 406 |  |  | 
2 | variant canine IgG-B Fc polypeptide 0YY (Gln83Tyr, Asn208Tyr) (protein, not shown: small tags and cut ends) CPAPEMLGGPSVFIFPPKPKDTLLIARTPEVTCVVVDLDPEDPEVQISWFVDGKQMQTAKTQPREEQFNGTYRVVSVLPIGHYDWLKGKQFTCKVNNKALPSPIERTISKARGQAHQPSVYVLPPSREELSKNTVSLTCLIKDFFPPDIDVEWQSNGQQEPESKYRTTPPQLDEDGSYFLYSKLSVDKSRWQRGDTFICAVMHEALHYHYTQESLSHSPGK |  |  | 2.03 | 0.00086 | 425000
3 | YTE variant canine IgG-B Fc polypeptide (Leu24Tyr, Ala26Thr, Thr28Glu) (protein, not shown: small tags and cut ends) CPAPEMLGGPSVFIFPPKPKDTLYITREPEVTCVVVDLDPEDPEVQISWFVDGKQMQTAKTQPREEQFNGTYRVVSVLPIGHQDWLKGKQFTCKVNNKALPSPIERTISKARGQAHQPSVYVLPPSREELSKNTVSLTCLIKDFFPPDIDVEWQSNGQQEPESKYRTTPPQLDEDGSYFLYSKLSVDKSRWQRGDTFICAVMHEALHNHYTQESLSHSPGK |  | 86.2 | 31 | 0.0205 | 662000
4 | variant canine IgG-B Fc polypeptide YYH (Leu24Tyr, Gln83Tyr, Asn208His) (protein, not shown: small tags and cut ends) CPAPEMLGGPSVFIFPPKPKDTLYIARTPEVTCVVVDLDPEDPEVQISWFVDGKQMQTAKTQPREEQFNGTYRVVSVLPIGHYDWLKGKQFTCKVNNKALPSPIERTISKARGQAHQPSVYVLPPSREELSKNTVSLTCLIKDFFPPDIDVEWQSNGQQEPESKYRTTPPQLDEDGSYFLYSKLSVDKSRWQRGDTFICAVMHEALHHHYTQESLSHSPGK |  |  | 1.7 | 0.000612 | 360000
5 | variant canine IgG-B Fc polypeptide Y0R (Leu24Tyr, Asn208Arg) (protein, not shown: small tags and cut ends) CPAPEMLGGPSVFIFPPKPKDTLYIARTPEVTCVVVDLDPEDPEVQISWFVDGKQMQTAKTQPREEQFNGTYRVVSVLPIGHQDWLKGKQFTCKVNNKALPSPIERTISKARGQAHQPSVYVLPPSREELSKNTVSLTCLIKDFFPPDIDVEWQSNGQQEPESKYRTTPPQLDEDGSYFLYSKLSVDKSRWQRGDTFICAVMHEALHRHYTQESLSHSPGK |  |  | 8.64 | 0.00295 | 341000
6 | variant canine IgG-B Fc polypeptide Y0H (Leu24Tyr, Asn208His) (protein, not shown: small tags and cut ends) CPAPEMLGGPSVFIFPPKPKDTLYIARTPEVTCVVVDLDPEDPEVQISWFVDGKQMQTAKTQPREEQFNGTYRVVSVLPIGHQDWLKGKQFTCKVNNKALPSPIERTISKARGQAHQPSVYVLPPSREELSKNTVSLTCLIKDFFPPDIDVEWQSNGQQEPESKYRTTPPQLDEDGSYFLYSKLSVDKSRWQRGDTFICAVMHEALHHHYTQESLSHSPGK |  |  | 8.11 | 0.00271 | 334000
7 | variant canine IgG-B Fc polypeptide YYR (Leu24Tyr, Gln83Tyr, Asn208Arg) (protein, not shown: small tags and cut ends) CPAPEMLGGPSVFIFPPKPKDTLYIARTPEVTCVVVDLDPEDPEVQISWFVDGKQMQTAKTQPREEQFNGTYRVVSVLPIGHYDWLKGKQFTCKVNNKALPSPIERTISKARGQAHQPSVYVLPPSREELSKNTVSLTCLIKDFFPPDIDVEWQSNGQQEPESKYRTTPPQLDEDGSYFLYSKLSVDKSRWQRGDTFICAVMHEALHRHYTQESLSHSPGK |  |  | 1.84 | 0.000638 | 347000
8 | variant canine IgG-B Fc polypeptide Y0Y (Leu24Tyr, Asn208Tyr) (protein, not shown: small tags and cut ends) CPAPEMLGGPSVFIFPPKPKDTLYIARTPEVTCVVVDLDPEDPEVQISWFVDGKQMQTAKTQPREEQFNGTYRVVSVLPIGHQDWLKGKQFTCKVNNKALPSPIERTISKARGQAHQPSVYVLPPSREELSKNTVSLTCLIKDFFPPDIDVEWQSNGQQEPESKYRTTPPQLDEDGSYFLYSKLSVDKSRWQRGDTFICAVMHEALHYHYTQESLSHSPGK |  |  | 0.49 | 0.00014 | 286000
9 | variant canine IgG-B Fc polypeptide L(24)Y (protein, not shown: small tags and cut ends) CPAPEMLGGPSVFIFPPKPKDTLYIARTPEVTCVVVDLDPEDPEVQISWFVDGKQMQTAKTQPREEQFNGTYRVVSVLPIGHQDWLKGKQFTCKVNNKALPSPIERTISKARGQAHQPSVYVLPPSREELSKNTVSLTCLIKDFFPPDIDVEWQSNGQQEPESKYRTTPPQLDEDGSYFLYSKLSVDKSRWQRGDTFICAVMHEALHNHYTQESLSHSPGK | 0.0138 s⁻¹ | 113 |  |  | 
10 | variant canine IgG-B Fc polypeptide Y0F (Leu24Tyr, Asn208Phe) (protein, not shown: small tags and cut ends) CPAPEMLGGPSVFIFPPKPKDTLYIARTPEVTCVVVDLDPEDPEVQISWFVDGKQMQTAKTQPREEQFNGTYRVVSVLPIGHQDWLKGKQFTCKVNNKALPSPIERTISKARGQAHQPSVYVLPPSREELSKNTVSLTCLIKDFFPPDIDVEWQSNGQQEPESKYRTTPPQLDEDGSYFLYSKLSVDKSRWQRGDTFICAVMHEALHFHYTQESLSHSPGK |  |  | 0.787 | 0.000221 | 281000
11 | variant canine IgG-B Fc polypeptide 0YH (Gln83Tyr, Asn208His) (protein, not shown: small tags and cut ends) CPAPEMLGGPSVFIFPPKPKDTLLIARTPEVTCVVVDLDPEDPEVQISWFVDGKQMQTAKTQPREEQFNGTYRVVSVLPIGHYDWLKGKQFTCKVNNKALPSPIERTISKARGQAHQPSVYVLPPSREELSKNTVSLTCLIKDFFPPDIDVEWQSNGQQEPESKYRTTPPQLDEDGSYFLYSKLSVDKSRWQRGDTFICAVMHEALHHHYTQESLSHSPGK |  |  | 11.8 | 0.00791 | 673000
12 | variant canine IgG-B Fc polypeptide 0YW (Gln83Tyr, Asn208Trp) (protein, not shown: small tags and cut ends) CPAPEMLGGPSVFIFPPKPKDTLLIARTPEVTCVVVDLDPEDPEVQISWFVDGKQMQTAKTQPREEQFNGTYRVVSVLPIGHYDWLKGKQFTCKVNNKALPSPIERTISKARGQAHQPSVYVLPPSREELSKNTVSLTCLIKDFFPPDIDVEWQSNGQQEPESKYRTTPPQLDEDGSYFLYSKLSVDKSRWQRGDTFICAVMHEALHWHYTQESLSHSPGK |  |  | 6.1 | 0.00213 | 348000
13 | variant canine IgG-B Fc polypeptide L(24)F (protein, not shown: small tags and cut ends) CPAPEMLGGPSVFIFPPKPKDTLFIARTPEVTCVVVDLDPEDPEVQISWFVDGKQMQTAKTQPREEQFNGTYRVVSVLPIGHQDWLKGKQFTCKVNNKALPSPIERTISKARGQAHQPSVYVLPPSREELSKNTVSLTCLIKDFFPPDIDVEWQSNGQQEPESKYRTTPPQLDEDGSYFLYSKLSVDKSRWQRGDTFICAVMHEALHNHYTQESLSHSPGK | 0.0631 s⁻¹ and 0.0847 s⁻¹ | 367 |  |  | 

The remaining lines, values ahead:

Row | koff [1] | Kd [2] [nM] | Kd [3] [nM] | koff [3] [s⁻¹] | kon [3] [M⁻¹ s⁻¹] | Binder
14 |  |  | 1.93 | 0.000496 | 256000 | variant canine IgG-B Fc polypeptide YYW (Leu24Tyr, Gln83Tyr, Asn208Trp) (protein, not shown: small tags and cut ends) CPAPEMLGGPSVFIFPPKPKDTLYIARTPEVTCVVVDLDPEDPEVQISWFVDGKQMQTAKTQPREEQFNGTYRVVSVLPIGHYDWLKGKQFTCKVNNKALPSPIERTISKARGQAHQPSVYVLPPSREELSKNTVSLTCLIKDFFPPDIDVEWQSNGQQEPESKYRTTPPQLDEDGSYFLYSKLSVDKSRWQRGDTFICAVMHEALHWHYTQESLSHSPGK
15 |  |  | 3.1 | 0.00118 | 380000 | variant canine IgG-B Fc polypeptide 0YF (Gln83Tyr, Asn208Phe) (protein, not shown: small tags and cut ends) CPAPEMLGGPSVFIFPPKPKDTLLIARTPEVTCVVVDLDPEDPEVQISWFVDGKQMQTAKTQPREEQFNGTYRVVSVLPIGHYDWLKGKQFTCKVNNKALPSPIERTISKARGQAHQPSVYVLPPSREELSKNTVSLTCLIKDFFPPDIDVEWQSNGQQEPESKYRTTPPQLDEDGSYFLYSKLSVDKSRWQRGDTFICAVMHEALHFHYTQESLSHSPGK
16 |  |  | 9.45 | 0.00655 | 693000 | variant canine IgG-B Fc polypeptide 0YR (Gln83Tyr, Asn208Arg) (protein, not shown: small tags and cut ends) CPAPEMLGGPSVFIFPPKPKDTLLIARTPEVTCVVVDLDPEDPEVQISWFVDGKQMQTAKTQPREEQFNGTYRVVSVLPIGHYDWLKGKQFTCKVNNKALPSPIERTISKARGQAHQPSVYVLPPSREELSKNTVSLTCLIKDFFPPDIDVEWQSNGQQEPESKYRTTPPQLDEDGSYFLYSKLSVDKSRWQRGDTFICAVMHEALHRHYTQESLSHSPGK
17 | 0.241 s⁻¹ |  |  |  |  | variant canine IgG-B Fc polypeptide L(24)S (protein, not shown: small tags and cut ends) CPAPEMLGGPSVFIFPPKPKDTLSIARTPEVTCVVVDLDPEDPEVQISWFVDGKQMQTAKTQPREEQFNGTYRVVSVLPIGHQDWLKGKQFTCKVNNKALPSPIERTISKARGQAHQPSVYVLPPSREELSKNTVSLTCLIKDFFPPDIDVEWQSNGQQEPESKYRTTPPQLDEDGSYFLYSKLSVDKSRWQRGDTFICAVMHEALHNHYTQESLSHSPGK
18 |  |  | 3.72 | 0.000929 | 250000 | variant canine IgG-B Fc polypeptide Y0W (Leu24Tyr, Asn208Trp) (protein, not shown: small tags and cut ends) CPAPEMLGGPSVFIFPPKPKDTLYIARTPEVTCVVVDLDPEDPEVQISWFVDGKQMQTAKTQPREEQFNGTYRVVSVLPIGHQDWLKGKQFTCKVNNKALPSPIERTISKARGQAHQPSVYVLPPSREELSKNTVSLTCLIKDFFPPDIDVEWQSNGQQEPESKYRTTPPQLDEDGSYFLYSKLSVDKSRWQRGDTFICAVMHEALHWHYTQESLSHSPGK
19 | 0.122 s⁻¹ | 1250 | 102 | 0.0856 | 838000 | wild-type canine IgG-B Fc polypeptide (protein, not shown: small tags and cut ends) CPAPEMLGGPSVFIFPPKPKDTLLIARTPEVTCVVVDLDPEDPEVQISWFVDGKQMQTAKTQPREEQFNGTYRVVSVLPIGHQDWLKGKQFTCKVNNKALPSPIERTISKARGQAHQPSVYVLPPSREELSKNTVSLTCLIKDFFPPDIDVEWQSNGQQEPESKYRTTPPQLDEDGSYFLYSKLSVDKSRWQRGDTFICAVMHEALHNHYTQESLSHSPGK
